Assay results taken from patent US20240417475A1.

Experiments:
[1] = biological target: CD16A endogenously expressed on primary human NK cells (human) (UniProt P08637); experiment: flow cytometry on primary human NK cells, biotinylated antibody, 37 C, with 10 mg/mL polyclonal human IgG as competitor, mean of 4
[2] = biological target: CD16A endogenously expressed on primary human NK cells (human) (UniProt P08637); experiment: flow cytometry on primary human NK cells, biotinylated antibody, 37 C, without IgG, mean of 4
[3] = biological target: human CD16A-mFc (158F) (sAg_107) (human) (UniProt P08637); experiment: ELISA, plate coated with human CD16A-mFc (158F) (sAg_107), one-site fit, mean of 3
[4] = biological target: human CD16A-mFc (158V) (sAg_149) (human) (UniProt P08637); experiment: ELISA, plate coated with human CD16A-mFc (158V), anti-mouse HRP detection, A450
[5] = biological target: human CD16A-mFc (158F) (sAg_107) (human) (UniProt P08637); experiment: ELISA, plate coated with human CD16A-mFc (158F), anti-mouse HRP detection, A450
[6] = biological target: CD16A endogenously expressed on primary human NK cells (human) (UniProt P08637); experiment: flow cytometry on primary human NK cells at 37 °C, biotinylated antibody, streptavidin-FITC, without polyclonal human IgG

Chain of CD16A endogenously expressed on primary human NK cells (human) (P08637 17-254 limits assumed): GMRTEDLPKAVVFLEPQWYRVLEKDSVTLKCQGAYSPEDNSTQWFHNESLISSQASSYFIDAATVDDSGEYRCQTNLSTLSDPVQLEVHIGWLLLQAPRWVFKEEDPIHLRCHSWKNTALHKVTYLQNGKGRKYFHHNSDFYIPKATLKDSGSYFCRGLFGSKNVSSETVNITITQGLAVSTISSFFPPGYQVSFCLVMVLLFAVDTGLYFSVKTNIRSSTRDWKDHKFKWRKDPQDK
Chain of human CD16A-mFc (158F) (sAg_107) (human) (P08637 17-208 limits assumed): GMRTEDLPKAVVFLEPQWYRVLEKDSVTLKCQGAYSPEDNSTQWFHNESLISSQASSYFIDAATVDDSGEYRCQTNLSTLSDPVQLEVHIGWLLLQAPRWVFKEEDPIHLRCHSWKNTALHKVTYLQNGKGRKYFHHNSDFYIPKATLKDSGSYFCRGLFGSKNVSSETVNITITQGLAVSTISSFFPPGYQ
Chain of human CD16A-mFc (158V) (sAg_149) (human) (P08637 17-208 F176V limits assumed): as the sequence (P08637 17-208 limits assumed) above, with F160V counted along it

Kd [1]: 54.6 nM
Kd [2]: 0.3 nM
Kd [3]: 0.02 nM
EC50 (read off the curve) [4]: 0.2 nM
EC50 (read off the curve) [5]: 0.03 nM
EC50 (read off the curve) [6]: 0.3 nM
Substance: anti-human CD16 antibody clone 3G8
